In patent US20110172168A1 (MEDIGENE, published 2011):
Residue numbers refer to the chain shown, from its start.

Target: T1, CEA-derived … (SEQ ID NO: 71)-HLA-A*0201 complex (biotin on the C-terminal biotinylation tag (enzymatic, BirA))
T1 construct: also called soluble biotinylated HLA-A2-peptide complex; not shown: C-terminal biotinylation tag that replaces the transmembrane and cytoplasmic domains
Experiment: Biacore SPR, pMHC immobilised
Method: SPR measures changes in refractive index expressed in response units (RU) near a sensor surface within a small flow cell, a principle that can be used to detect receptor ligand interactions and to analyse their affinity and kinetic parameters. The probe flow cells were prepared by immobilising the pMHC complexes in flow cells via biotin-tag binding. The assay was then performed by passing soluble ILT over the surfaces of the different flow cells at a constant flow rate, measuring the SPR response in doing so.

B1: soluble truncated variant of the Wild-Type ILT-2 molecule (receptor)
chain: MGHLPKPTLWAEPGSVITQGSPVTLRCQGGQETQEYRLYREKKTAPWITRIPQELVKKGQFPIPSITWEHAGRYRCYYGSDTAGRSESSDPLELVVTGAYIKPTLSAQPSPVVNSGGNVTLQCDSQVAFDGFILCKEGEDEHPQCLNSQPHARGSSRAIFSVGPVSPSRRWWYRCYAYDSNSPYEWSLPSDLLELLVL
notes: also called soluble wild-type ILT-2; soluble two domain form of the wild-type ILT-2
With B1 the Kd was about 6 µM and the koff was 2.4 s⁻¹.

B2: SEQ ID NO 68 (receptor)
chain: MGHLPKPTLWAEPGSVITMDQPVTLRCQGGQETQEYRLYREKKTAPWITRIPQELVKKGQFPIPSITWEHAGRYRCYYGSDTSQWSASSDPLELVVTGVYIKPTLSAQPSPVVNSGGNVTLQCDSPFIADGFILCKEGEDEHPQCLNSQPHARGSSRAIFSVGPVSPSRRWWYRCYAYMSWSPYEWSLPSDLLELDVDG
Binder B2 has a Kd of at most 1 µM and a koff of at most 2 s⁻¹.

B3: SEQ ID NO 37 (receptor)
chain: MGHLPKPTLWAEPGSVITMDQPVTLRCQGGQETQEYRLYREKKTAPWITRIPQELVKKGQFPIPSITWEHAGRYRCYYGSDTAGRSESSDPLELVVTGVYIKPTLSAQPSPVVNSGGNVTLQCDSQVAFDGFILCKEGEDEHPQCLNSQPHARGSSRAIFSVGPVSPSRRWWYRCYAYPAWTPYEWSLPSDLLELDVDG
For B3, the Kd was at most 1 µM and the koff was at most 2 s⁻¹.

B4: SEQ ID NO 61 (receptor)
chain: B2 chain with F127W, I128V
B4 was tested, and the Kd was at most 1 µM and the koff was at most 2 s⁻¹.

B5: SEQ ID NO 41 (receptor)
chain: B3 chain with P179M, A180S, T182S
B5 was tested, and the Kd was at most 1 µM and the koff was at most 2 s⁻¹.

B6: SEQ ID NO 64 (receptor)
chain: B2 chain with I128Q
B6 gave a Kd of at most 1 µM and a koff of at most 2 s⁻¹.

B7: SEQ ID NO 39 (receptor)
chain: B3 chain with P179M, A180S, T182A
In the case of B7, the Kd is reported as at most 1 µM and the koff is reported as at most 2 s⁻¹.

B8: SEQ ID NO 62 (receptor)
chain: B2 chain with I128L, A129T
For B8, the Kd was at most 1 µM and the koff was at most 2 s⁻¹.

B9: SEQ ID NO 63 (receptor)
chain: B2 chain with F127W, I128L
B9 gave a Kd of at most 1 µM and a koff of at most 2 s⁻¹.

B10: SEQ ID NO 33 (receptor)
chain: B3 chain with P179V, T182A
B10 showed a Kd of at most 1 µM and a koff of at most 2 s⁻¹.

B11: SEQ ID NO 31 (receptor)
chain: B3 chain with A180I
With B11 the Kd was at most 1 µM and the koff was at most 2 s⁻¹.

B12: SEQ ID NO 35 (receptor)
chain: B3 chain with P179M, A180N, T182A
For B12, the Kd was at most 1 µM and the koff was at most 2 s⁻¹.

B13: SEQ ID NO 7 (receptor)
chain: MAGHLPKPTLWAEPGSVITMDQPVTLRCQGGQETQEYRLYREKKTAPWITRIPQELVKKGQFPIPSITWEHAGRYRCYYGSDTSQWSASSDPLELVVTGVYIKPTLSAQPSPVVNSGGNVTLQCDSQVAFDGFILCKEGEDEHPQCLNSQPHARGSSRAIFSVGPVSPSRRWWYRCYAYPIWTPYEWSLPSDLLELDVDG
Binder B13 has a Kd of at most 1 µM and a koff of at most 2 s⁻¹.

B14: SEQ ID NO 36 (receptor)
chain: B13 chain with M20Q, D21G, Q22S, I181A
With B14 the Kd was at most 1 µM and the koff was at most 2 s⁻¹.

B15: SEQ ID NO 56 (receptor)
chain: B13 chain with S188T, P190G
For B15, the Kd was at most 1 µM and the koff was at most 2 s⁻¹.

B16: SEQ ID NO 55 (receptor)
chain: B13 chain with L189S, P190G
In the case of B16, the Kd is reported as at most 1 µM and the koff is reported as at most 2 s⁻¹.

B17: SEQ ID NO 11 (receptor)
chain: B13 chain with P180V, I181D, T183F
Work on B17 yielded a Kd of at most 1 µM and a koff of at most 2 s⁻¹.

B18: SEQ ID NO 44 (receptor)
chain: B13 chain with I181A, W182Y
Work on B18 yielded a Kd of at most 1 µM and a koff of at most 2 s⁻¹.

B19: SEQ ID NO 18 (receptor)
chain: B13 chain with P180M, I181S, T183A
In the case of B19, the Kd is reported as at most 1 µM and the koff is reported as at most 2 s⁻¹.

B20: SEQ ID NO 54 (receptor)
chain: B13 chain with L189T, P190S
B20 showed a Kd of at most 1 µM and a koff of at most 2 s⁻¹.

B21: SEQ ID NO 8 (receptor)
chain: B13 chain with P180V, I181A, T183A
In the case of B21, the Kd is reported as at most 1 µM and the koff is reported as at most 2 s⁻¹.

B22: SEQ ID NO 47 (receptor)
chain: B13 chain with P180M, I181S, W182N, T183A
With B22 the Kd was at most 1 µM and the koff was at most 2 s⁻¹.

B23: SEQ ID NO 57 (receptor)
chain: B13 chain with P180D, I181S, W182N, T183S, S188T, L189R, P190G
Binder B23 has a Kd of at most 1 µM and a koff of at most 2 s⁻¹.

B24: SEQ ID NO 45 (receptor)
chain: B13 chain with P180M, I181S, W182N, T183S
Work on B24 yielded a Kd of at most 1 µM and a koff of at most 2 s⁻¹.

B25: SEQ ID NO 53 (receptor)
chain: B13 chain with S188T, L189R, P190G
With B25 the Kd was at most 1 µM and the koff was at most 2 s⁻¹.

B26: SEQ ID NO 48 (receptor)
chain: B13 chain with P180D, I181S, T183A
For B26, the Kd was at most 1 µM and the koff was at most 2 s⁻¹.

B27: SEQ ID NO 13 (receptor)
chain: B13 chain with I181A
With B27 the Kd was at most 1 µM and the koff was at most 2 s⁻¹.

B28: SEQ ID NO 9 (receptor)
chain: B13 chain with P180M, I181N, T183A
Binder B28 has a Kd of at most 1 µM and a koff of at most 2 s⁻¹.

B29: SEQ ID NO 21 (receptor)
chain: B13 chain with I181W, W182F
For B29, the Kd was at most 1 µM and the koff was at most 2 s⁻¹.

B30: SEQ ID NO 59 (receptor)
chain: B13 chain with P180D, I181S, W182N, T183S, L189S, P190G
For B30, the Kd was at most 1 µM and the koff was at most 2 s⁻¹.

B31: SEQ ID NO 15 (receptor)
chain: B13 chain with G3Q, A129S, P180D, I181S, W182N, T183S
B31 showed a Kd of at most 1 µM and a koff of at most 2 s⁻¹.

B32: SEQ ID NO 43 (receptor)
chain: B13 chain with P180M, I181S, W182Y, T183S
Binder B32 has a Kd of at most 1 µM and a koff of at most 2 s⁻¹.

B33: SEQ ID NO 10 (receptor)
chain: B13 chain with P180T, I181D, W182Y, T183S
Binder B33 has a Kd of at most 1 µM and a koff of at most 2 s⁻¹.

B34: SEQ ID NO 12 (receptor)
chain: B13 chain with P180V, I181S, W182Y, T183W
B34 gave a Kd of at most 1 µM and a koff of at most 2 s⁻¹.

B35: SEQ ID NO 20 (receptor)
chain: B13 chain with I181D, W182F
B35 gave a Kd of at most 1 µM and a koff of at most 2 s⁻¹.

B36: SEQ ID NO 46 (receptor)
chain: B13 chain with P180D, I181S, T183S
Work on B36 yielded a Kd of at most 1 µM and a koff of at most 2 s⁻¹.

B37: SEQ ID NO 17 (receptor)
chain: B13 chain with G3Q, F130Y, P180D, I181S, W182N, T183S
With B37 the Kd was at most 1 µM and the koff was at most 2 s⁻¹.

B38: SEQ ID NO 40 (receptor)
chain: B13 chain with M20Q, D21G, Q22S, P180M, I181S, T183S
With B38 the Kd was at most 1 µM and the koff was at most 2 s⁻¹.

B39: SEQ ID NO 30 (receptor)
chain: B13 chain with M20Q, D21G, Q22S
In the case of B39, the Kd is reported as at most 1 µM and the koff is reported as at most 2 s⁻¹.

B40: SEQ ID NO 58 (receptor)
chain: B13 chain with P180D, I181S, W182N, T183S, L189Q, P190M
With B40 the Kd was at most 1 µM and the koff was at most 2 s⁻¹.

B41: SEQ ID NO 34 (receptor)
chain: B13 chain with M20Q, D21G, Q22S, P180M, I181N, T183A
Binder B41 has a Kd of at most 1 µM and a koff of at most 2 s⁻¹.

B42: SEQ ID NO 32 (receptor)
chain: B13 chain with M20Q, D21G, Q22S, P180V, I181A, T183A
B42 showed a Kd of at most 1 µM and a koff of at most 2 s⁻¹.

B43: SEQ ID NO 23 (receptor)
chain: B13 chain with P180V, I181E, T183L
Binder B43 has a Kd of at most 1 µM and a koff of at most 2 s⁻¹.

B44: SEQ ID NO 14 (receptor)
chain: B13 chain with G3Q, A129D, P180D, I181S, W182N, T183S
Work on B44 yielded a Kd of at most 1 µM and a koff of at most 2 s⁻¹.

B45: SEQ ID NO 52 (receptor)
chain: B13 chain with L189Q, P190M
Work on B45 yielded a Kd of at most 1 µM and a koff of at most 2 s⁻¹.

B46: SEQ ID NO 38 (receptor)
chain: B13 chain with M20Q, D21G, Q22S, P180M, I181S, T183A
Work on B46 yielded a Kd of at most 1 µM and a koff of at most 2 s⁻¹.

B47: SEQ ID NO 51 (receptor)
chain: B13 chain with P190G
B47 showed a Kd of at most 1 µM and a koff of at most 2 s⁻¹.

B48: SEQ ID NO 16 (receptor)
chain: B13 chain with G3Q, A129T, P180D, I181S, W182N, T183S
Binder B48 has a Kd of at most 1 µM and a koff of at most 2 s⁻¹.
